Measured values from US20240100162A1 (published 2024).

Experiments:
[1] = target: T1, MAGE-B2 peptide, E6V peptide on HLA-A*02:01 (human); test: killing
T1 peptide: GVYDGVEHSV

[2] = target: T2, MAGE-B2 peptide, E7C peptide on HLA-A*02:01 (human); test: killing
T2 peptide: GVYDGECHSV

[3] = target: T3, MAGE-B2 peptide, E7D peptide on HLA-A*02:01 (human); test: killing
T3 peptide: GVYDGEDHSV

[4] = target: T4, MAGE-B2 peptide, E7H peptide on HLA-A*02:01 (human); test: killing
T4 peptide: GVYDGEHHSV

[5] = target: T5, MAGE-B2 peptide, E7L peptide on HLA-A*02:01 (human); test: killing
T5 peptide: GVYDGELHSV

[6] = target: T6, MAGE-B2 peptide, E7M peptide on HLA-A*02:01 (human); test: killing
T6 peptide: GVYDGEMHSV

[7] = target: T7, MAGE-B2 peptide, E7N peptide on HLA-A*02:01 (human); test: killing
T7 peptide: GVYDGENHSV

[8] = target: T8, MAGE-B2 peptide, E7P peptide on HLA-A*02:01 (human); test: killing
T8 peptide: GVYDGEPHSV

[9] = target: T9, MAGE-B2 peptide, E7Q peptide on HLA-A*02:01 (human); test: killing
T9 peptide: GVYDGEQHSV

[10] = target: T10, MAGE-B2 peptide, E7Y peptide on HLA-A*02:01 (human); test: killing
T10 peptide: GVYDGEYHSV

[11] = target: T11, MAGE-B2 peptide, H8F peptide on HLA-A*02:01 (human); test: killing
T11 peptide: GVYDGEEFSV

[12] = target: T12, MAGE-B2 peptide, H8N peptide on HLA-A*02:01 (human); test: killing
T12 peptide: GVYDGEENSV

[13] = target: T13, MAGE-B2 peptide, H8W peptide on HLA-A*02:01 (human); test: killing
T13 peptide: GVYDGEEWSV

[14] = target: T14, MAGE-B2 peptide, H8Y peptide on HLA-A*02:01 (human); test: killing
T14 peptide: GVYDGEEYSV

[15] = target: T15, MAGE-B2 peptide, S9A peptide on HLA-A*02:01 (human); test: killing
T15 peptide: GVYDGEEHAV

[16] = target: T16, MAGE-B2 peptide, S9C peptide on HLA-A*02:01 (human); test: killing
T16 peptide: GVYDGEEHCV

[17] = target: T17, MAGE-B2 peptide, S9D peptide on HLA-A*02:01 (human); test: killing
T17 peptide: GVYDGEEHDV

[18] = target: T18, MAGE-B2 peptide, S9E peptide on HLA-A*02:01 (human); test: killing
T18 peptide: GVYDGEEHEV

[19] = target: T19, MAGE-B2 peptide, S9G peptide on HLA-A*02:01 (human); test: killing
T19 peptide: GVYDGEEHGV

[20] = target: T20, MAGE-B2 peptide, S9I peptide on HLA-A*02:01 (human); test: killing
T20 peptide: GVYDGEEHIV

[21] = target: T21, MAGE-B2 peptide, S9N peptide on HLA-A*02:01 (human); test: killing
T21 peptide: GVYDGEEHNV

[22] = target: T22, MAGE-B2 peptide, S9P peptide on HLA-A*02:01 (human); test: killing
T22 peptide: GVYDGEEHPV

[23] = target: T23, MAGE-B2 peptide, S9Q peptide on HLA-A*02:01 (human); test: killing
T23 peptide: GVYDGEEHQV

[24] = target: T24, MAGE-B2 peptide, S9T peptide on HLA-A*02:01 (human); test: killing
T24 peptide: GVYDGEEHTV

[25] = target: T25, MAGE-B2 peptide, S9V peptide on HLA-A*02:01 (human); test: killing
T25 peptide: GVYDGEEHVV

[26] = target: T26, MAGE-B2 peptide, S9W peptide on HLA-A*02:01 (human); test: killing
T26 peptide: GVYDGEEHWV

[27] = target: T27, MAGE-B2 peptide, V10A peptide on HLA-A*02:01 (human); test: killing
T27 peptide: GVYDGEEHSA

[28] = target: T28, MAGE-B2 peptide, V10I peptide on HLA-A*02:01 (human); test: killing
T28 peptide: GVYDGEEHSI

[29] = target: T29, MAGE-B2 peptide, V10L peptide on HLA-A*02:01 (human); test: killing
T29 peptide: GVYDGEEHSL

[30] = target: T30, MAGE-B2 peptide, V2I peptide on HLA-A*02:01 (human); test: killing
T30 peptide: GIYDGEEHSV

[31] = target: T31, MAGE-B2 peptide, V2L peptide on HLA-A*02:01 (human); test: killing
T31 peptide: GLYDGEEHSV

[32] = target: T32, MAGE-B2 peptide, V2M peptide on HLA-A*02:01 (human); test: killing
T32 peptide: GMYDGEEHSV

[33] = target: T33, MAGE-B2 peptide, V2T peptide on HLA-A*02:01 (human); test: killing
T33 peptide: GTYDGEEHSV

[34] = target: T34, MAGE-B2 peptide, Y3F peptide on HLA-A*02:01 (human); test: killing
T34 peptide: GVFDGEEHSV

[35] = target: T35, MAGE-B2 peptide, D4C peptide on HLA-A*02:01 (human); test: killing
T35 peptide: GVYCGEEHSV

[36] = target: T36, MAGE-B2 peptide, D4N peptide on HLA-A*02:01 (human); test: killing
T36 peptide: GVYNGEEHSV

[37] = target: T37, MAGE-B2 peptide, D4P peptide on HLA-A*02:01 (human); test: killing
T37 peptide: GVYPGEEHSV

[38] = target: T38, MAGE-B2 peptide on HLA-A*02:01 (human); test: multimer staining
T38 peptide: GVYDGEEHSV

[39] = target: T39, MAGE-B2 peptide, E6M peptide on HLA-A*02:01 (human); test: killing
T39 peptide: GVYDGMEHSV

[40] = target: T40, MAGE-B2 peptide, H8K peptide on HLA-A*02:01 (human); test: killing
T40 peptide: GVYDGEEKSV

[41] = target: T41, MAGE-B2 peptide, S9M peptide on HLA-A*02:01 (human); test: killing
T41 peptide: GVYDGEEHMV

Measured: binding result

B1: TCR1 (TCR, V domains shown)
Valpha: KQEVTQIPAALSVPEGENLVLNCSFTDSAIYNLQWFRQDPGKGLTSLLLIQSSQREQTSGRLNASLDKSSGRSTLYIAASQPGDSATYLCAAMKTSYDKVIFGPGTSLSVIP
Vbeta: GEEVAQTPKHLVRGEGQKAKLYCAPIKGHSYVFWYQQVLKNEFKFLISFQNENVFDETGMPKERFSAKCLPNSPCSLEIQATKLEDSAVYFCASSQGQGGYGYTFGSGTRLTVV
not listed: [39] | [40] | [41]
recognises: all other assays above

B2: TCR3 (TCR, V domains shown)
Valpha: AQKVTQAQTEISVVEKEDVTLDCVYETRDTTYYLFWYKQPPSGELVFLIRRNSFDEQNEISGRYSWNFQKSTSSFNFTITASQVVDSAVYFCALSVLRMDSSYKLIFGSGTRLLVRP
Vbeta: NAGVTQTPKFRVLKTGQSMTLLCAQDMNHEYMYWYRQDPGMGLRLIHYSVGEGTTAKGEVPDGYNVSRLKKQNFLLGLESAAPSQTSVYFCASSLQGAGQPQHFGDGTRLSIL
not listed: [37]
recognises: all other assays above

B3: TCR2 (TCR, V domains shown)
Valpha: QKEVEQNSGPLSVPEGAIASLNCTYSDRGSQSFFWYRQYSGKSPELIMSIYSNGDKEDGRFTAQLNKASQYVSLLIRDSQPSDSATYLCAVNIPFSNSGGYQKVTFGTGTKLQVIP
Vbeta: NAGVTQTPKFRVLKTGQSMTLLCAQDMNHEYMYWYRQDPGMGLRLIHYSVGEGTTAKGEVPDGYNVSRLKKQNFLLGLESAAPSQTSVYFCASRHPGQYNQPQHFGDGTRLSIL
not listed: [8]
recognises: all other assays above
